From EP4725970A1
pKd: −log10 of the molar value.

REGN-BCMA/CD3 (REGN5458) (bispecific antibody), sequence (VH): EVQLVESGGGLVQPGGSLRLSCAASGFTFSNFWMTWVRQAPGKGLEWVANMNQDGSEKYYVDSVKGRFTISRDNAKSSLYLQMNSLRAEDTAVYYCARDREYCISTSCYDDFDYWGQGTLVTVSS
REGN-BCMA/CD3 (REGN5458) (bispecific antibody), sequence (VL): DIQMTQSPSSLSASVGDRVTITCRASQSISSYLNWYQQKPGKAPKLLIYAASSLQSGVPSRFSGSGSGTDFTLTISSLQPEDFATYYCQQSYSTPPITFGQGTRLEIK
REGN-BCMA/CD3 (REGN5458) (bispecific antibody), sequence (chain): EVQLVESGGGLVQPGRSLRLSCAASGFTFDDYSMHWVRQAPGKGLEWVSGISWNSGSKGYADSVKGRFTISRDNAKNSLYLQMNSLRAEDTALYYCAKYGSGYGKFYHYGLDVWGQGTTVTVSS
JNJ-BCMA/CD3 (Teclistamab) (bispecific antibody), sequence (heavy): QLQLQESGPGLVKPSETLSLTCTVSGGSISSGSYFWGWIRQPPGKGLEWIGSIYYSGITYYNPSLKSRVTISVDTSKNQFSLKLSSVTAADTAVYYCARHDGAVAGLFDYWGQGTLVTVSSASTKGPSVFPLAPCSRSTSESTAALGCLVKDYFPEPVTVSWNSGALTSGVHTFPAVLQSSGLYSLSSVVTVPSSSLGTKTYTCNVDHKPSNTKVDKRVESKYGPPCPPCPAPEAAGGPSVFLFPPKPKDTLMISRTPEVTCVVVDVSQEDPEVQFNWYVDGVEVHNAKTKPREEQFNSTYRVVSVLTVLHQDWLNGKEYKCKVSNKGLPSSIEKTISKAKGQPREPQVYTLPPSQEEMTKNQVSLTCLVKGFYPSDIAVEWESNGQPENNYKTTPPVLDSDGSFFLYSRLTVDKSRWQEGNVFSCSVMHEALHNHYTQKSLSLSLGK
JNJ-BCMA/CD3 (Teclistamab) (bispecific antibody), sequence (light): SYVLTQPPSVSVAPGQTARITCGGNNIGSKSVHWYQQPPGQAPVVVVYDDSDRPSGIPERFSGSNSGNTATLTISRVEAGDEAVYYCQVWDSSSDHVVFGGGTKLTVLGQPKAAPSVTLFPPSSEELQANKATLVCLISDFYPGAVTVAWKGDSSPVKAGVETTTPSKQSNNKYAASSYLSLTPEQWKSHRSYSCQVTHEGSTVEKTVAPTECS
JNJ-BCMA/CD3 (Teclistamab) (bispecific antibody), sequence (heavy): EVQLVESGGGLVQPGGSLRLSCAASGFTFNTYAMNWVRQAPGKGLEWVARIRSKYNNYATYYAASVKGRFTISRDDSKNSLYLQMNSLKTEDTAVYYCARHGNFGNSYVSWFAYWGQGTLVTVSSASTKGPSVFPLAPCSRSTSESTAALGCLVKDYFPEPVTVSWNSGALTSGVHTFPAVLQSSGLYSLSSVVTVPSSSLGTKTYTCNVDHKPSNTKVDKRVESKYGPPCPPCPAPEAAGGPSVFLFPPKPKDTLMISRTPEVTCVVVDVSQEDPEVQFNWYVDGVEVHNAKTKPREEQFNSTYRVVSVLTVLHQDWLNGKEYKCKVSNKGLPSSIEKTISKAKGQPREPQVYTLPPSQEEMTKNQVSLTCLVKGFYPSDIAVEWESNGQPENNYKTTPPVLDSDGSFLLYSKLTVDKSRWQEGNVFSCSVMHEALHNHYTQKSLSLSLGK
JNJ-BCMA/CD3 (Teclistamab) (bispecific antibody), sequence (light): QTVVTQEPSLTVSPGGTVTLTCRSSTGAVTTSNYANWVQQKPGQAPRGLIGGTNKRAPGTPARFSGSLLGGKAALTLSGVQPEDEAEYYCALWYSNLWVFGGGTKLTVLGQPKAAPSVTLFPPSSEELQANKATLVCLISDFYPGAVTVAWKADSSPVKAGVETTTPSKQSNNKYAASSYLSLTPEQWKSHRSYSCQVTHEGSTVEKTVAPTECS

What follows are substances tested against human BCMA-His (human) (UniProt Q02223) (assay: BLI (Octet), 1:1 fit).
human BCMA-His (human), sequence (Q02223 1-54): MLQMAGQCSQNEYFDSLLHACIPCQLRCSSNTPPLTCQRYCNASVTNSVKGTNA
“JNJ-BCMA/CD3 (Teclistamab) (bispecific antibody)” showed a pKd of 9.36, a koff of 0.000722 s⁻¹ and a kon of 1.66e+06 M⁻¹ s⁻¹. In the case of “REGN-BCMA/CD3 (REGN5458) (bispecific antibody)”, the pKd was 8.95, the koff was 0.000792 s⁻¹ and the kon was 701000 M⁻¹ s⁻¹. “Roche-BCMA/CD3 (Alnuctamab) (bispecific antibody)” was tested, and the pKd was 9.69, the koff was 0.000262 s⁻¹ and the kon was 1.28e+06 M⁻¹ s⁻¹.
